From the supplement of paper PMC9732359
± gives the uncertainty stated by the source.

Experiment: protein stability index of a GFP-peptide fusion (yeast GPS) (PSI 1-4); higher = more stable; sorted into four equal gates, so the index is relative within each strain
How it was run: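 Tiled 17-residue peptides from yeast proteins were fused downstream of GFP on a plasmid that also expresses Cherry, and the pooled library was carried in yeast. Mid-log cultures grown in leucine-free medium were sorted into four equal gates by GFP/Cherry fluorescence ratio. Plasmids from each gate were PCR-amplified and Illumina-sequenced, and reads were assigned to strains by barcodes. Each peptide's protein stability index is the sum, over gates, of the gate's read frequency multiplied by its gate number.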

Row | Sequence | protein stability index (doa10∆) | protein stability index (pdr5∆) | protein stability index (san1∆) | protein stability index (ubr1∆)
1 | VIDIEIHVLEQDGGIMG [SKI6] | 2.84 ± 0.076 | 2.56 ± 0.095 | 2.5 ± 0.11 | 2.85 ± 0.062
2 | APTGSGKTNIALLTVLK [BRR2] | 2.88 ± 0.067 | 3.07 ± 0.073 | 3.35 ± 0.052 | 2.88 ± 0.049
3 | GGNSNKSPPQFFYNISS [SIN4] | 2.76 ± 0.043 | 3.04 ± 0.049 | 2.76 ± 0.037 | 2.58 ± 0.041
4 | KSKKSWLNRLNNWLFGW [YMR153W/NUP53] | 2.81 ± 0.054 | 2.66 ± 0.046 | 2.51 ± 0.053 | 2.94 ± 0.041
5 | YATQVKTDNTVDKFDFY [RPT3] | 2.39 ± 0.05 | 2.63 ± 0.055 | 2.49 ± 0.052 | 2.62 ± 0.042
6 | NQLTESASHFEQYTKKI [YJL041W/NSP1] | 2.28 ± 0.086 | 2.45 ± 0.065 | 2.76 ± 0.082 | 2.5 ± 0.095
7 | LFKKITNVNPSKNFNVI [YML103C/NUP188] | 2.63 ± 0.048 | 2.37 ± 0.038 | 2.73 ± 0.042 | 2.39 ± 0.036
8 | SLTEATKTNVDNNSKAE [YLR335W/NUP2] | 3.14 ± 0.052 | 3.35 ± 0.064 | 3.14 ± 0.062 | 3.32 ± 0.042
9 | RTDQYTIDNIDSENFSF [YMR129W/POM152] | 2.88 ± 0.042 | 2.99 ± 0.043 | 2.91 ± 0.039 | 3.01 ± 0.036
10 | KDYSQILKEEFPKIDSL [RPN5] | – | 2.35 ± 0.24 | – | –
11 | SMPLEQLIPIILRQRGP [SRB4] | 2.05 ± 0.057 | 2.31 ± 0.058 | 2.32 ± 0.083 | 1.91 ± 0.055
12 | LRLFINEEGDWSCIVVE [ITC1] | 2.74 ± 0.088 | 2.62 ± 0.083 | 3.07 ± 0.083 | 3.19 ± 0.1
13 | EYYVMMDFANLWVFQAF [SRB8] | 2.37 ± 0.098 | 2.37 ± 0.082 | 2.63 ± 0.093 | 2.64 ± 0.057
14 | QLFHSMSIVFGDKFSED [UBP6] | 1.62 ± 0.056 | 1.34 ± 0.06 | 1.14 ± 0.094 | 1.38 ± 0.041
15 | AEQEKAKNIISNVLDGN [LRP1] | 2.45 ± 0.051 | 2.7 ± 0.059 | 2.63 ± 0.056 | 2.98 ± 0.05
16 | ELSRIENEVENINATNT [YCS4] | 3.52 ± 0.16 | 3.11 ± 0.11 | 3.23 ± 0.053 | 3.14 ± 0.11
17 | FYVQDVYKDNLSFIQVR [RPO31] | 1.98 ± 0.049 | 1.69 ± 0.05 | 1.92 ± 0.068 | 1.88 ± 0.041
18 | YTYSSTLSHLRRTNTPI [RPB2] | 2.06 ± 0.043 | 2.13 ± 0.04 | 2.23 ± 0.063 | 2.17 ± 0.033
19 | QCLRFLKETVIPSLANN [POP6] | 1.49 ± 0.065 | 1.63 ± 0.11 | 1.92 ± 0.16 | 2.09 ± 0.051
20 | SHSLALNEITNSKVNKL [DSN1] | 2.33 ± 0.04 | 2.57 ± 0.04 | 2.48 ± 0.035 | 2.54 ± 0.033
21 | FGNTSTSSAPAQNQGMF [YGL172W/NUP49] | 3.3 ± 0.15 | 3.4 ± 0.24 | – | –
22 | NSITKDNIDYAPMRLAT [YJL039C/NUP192] | 2.58 ± 0.048 | 2.74 ± 0.038 | 2.71 ± 0.05 | 2.57 ± 0.035
23 | NDGNNRTNNVPMIKAEE [NUT1] | 3.05 ± 0.17 | 3.31 ± 0.14 | 2.65 ± 0.17 | 3.77 ± 0.16
24 | KDILVKTGITKKDEDEE [PRE9] | 3.37 ± 0.09 | 3.27 ± 0.087 | 2.58 ± 0.23 | 3.17 ± 0.14
25 | KTAYSIYLSQNELTDAI [RPN1] | 2.48 ± 0.037 | 2.28 ± 0.038 | 2.71 ± 0.037 | 2.08 ± 0.023
26 | NNQSKEKADYEDEMMHE [RPN12] | 2.63 ± 0.074 | 2.7 ± 0.06 | 2.67 ± 0.095 | 2.53 ± 0.052

Row | Sequence | protein stability index (doa10∆) | protein stability index (pdr5∆) | protein stability index (san1∆) | protein stability index (ubr1∆)
27 | VSVRKHLERNRKDKDAK [RPS13] | 3.38 ± 0.16 | 3.31 ± 0.095 | – | 3.28 ± 0.099
28 | VLKADRSWNEPSKSQTN [YML103C/NUP188] | 2.93 ± 0.11 | 3.16 ± 0.1 | 2.89 ± 0.097 | 3.27 ± 0.083
29 | DVSPLRRVNQAIALLTI [RPS5] | 2.07 ± 0.065 | 2.05 ± 0.077 | 1.85 ± 0.15 | 1.47 ± 0.055
30 | NKTKAVDNTVPSTTLFN [YOR098C/NUP1] | 2.84 ± 0.087 | 2.58 ± 0.067 | 3.04 ± 0.054 | 3.15 ± 0.055
31 | MPGVSVRDVAAQDFINA [RPS19A] | 1.81 ± 0.12 | 1.31 ± 0.12 | – | 1.16 ± 0.11
32 | DRDALSGWGAVVYIIKK [PUP3] | 3.12 ± 0.081 | 2.96 ± 0.063 | 2.99 ± 0.06 | 3.13 ± 0.056
33 | LATLLGHNDWVSQVRVV [ASC1] | 1.94 ± 0.085 | 2.37 ± 0.082 | 1.89 ± 0.1 | 1.8 ± 0.047
34 | DYLFHLLISLNILFSLW [YLR018C/POM34] | 1.61 ± 0.041 | 1.34 ± 0.036 | 1.17 ± 0.072 | 1.21 ± 0.03
35 | MNETLNLKVELKEQSEQ [SMC4] | – | – | 2.14 ± 0.29 | 3.42 ± 0.12
36 | HCGALNGVVKKAAAGAG [RPO31] | 1.35 ± 0.27 | 2.38 ± 0.19 | – | –
37 | YATKRQEAIQQNRRLAF [PRP8] | 2.43 ± 0.11 | 2.43 ± 0.12 | 2.62 ± 0.25 | 2.61 ± 0.067
38 | GDIESLFEQLQTVSNKE [SRP54] | 3.08 ± 0.098 | 2.87 ± 0.079 | 3.18 ± 0.045 | 3.12 ± 0.046
39 | FILELEHKTPELISFKE [YIL149C/MLP2] | 2.86 ± 0.081 | 3.05 ± 0.086 | 2.96 ± 0.1 | 3.29 ± 0.086
40 | PLILTPPQLANQQQPPQ [SNF11] | 1.53 ± 0.066 | 1.93 ± 0.071 | 2.04 ± 0.093 | 2.15 ± 0.069
41 | SDKDATTDGKNDDEEEE [RPN1] | – | 3.33 ± 0.26 | – | –
42 | GISMFDYISGISVGLYD [SKI6] | 2.02 ± 0.092 | 2.02 ± 0.069 | 2.03 ± 0.069 | 2.1 ± 0.052
43 | DPLVSLMMVEKVPDSTY [RPT6] | 2.59 ± 0.087 | 2.93 ± 0.064 | 2.49 ± 0.069 | 2.89 ± 0.063
44 | SLPFLLRHMPLASIPDI [SSN2] | 1.94 ± 0.072 | 1.69 ± 0.055 | 1.5 ± 0.072 | 1.44 ± 0.045
45 | PVFHKKAKTTKKVVLRL [RPL42A] | 2.95 ± 0.11 | 1.92 ± 0.091 | 2.25 ± 0.094 | 1.98 ± 0.14
46 | VPIKSSKSGRIFALVFS [RPN13] | 2.57 ± 0.14 | 2.41 ± 0.091 | 2.41 ± 0.096 | 2.63 ± 0.1
47 | NVHGSLEPFLLMLEDTD [BRR2] | 2.47 ± 0.077 | 2.63 ± 0.088 | 2.87 ± 0.11 | 2.94 ± 0.059
48 | PELGDKFSSRHGQKGVC [RET1] | 3.26 ± 0.12 | 3.42 ± 0.12 | 2.99 ± 0.14 | 3.09 ± 0.1
49 | EKVTRYNRHKLQELIVN [RPO31] | 1.74 ± 0.046 | 1.44 ± 0.043 | 1.82 ± 0.058 | 1.44 ± 0.041
50 | VVFDSNEAPPKTSLADW [YMR153W/NUP53] | 3.19 ± 0.06 | 3.28 ± 0.051 | 3.06 ± 0.073 | 3.33 ± 0.096
51 | NHKIIARVKAFDRHCNM [SMD2] | 1.7 ± 0.07 | 1.72 ± 0.08 | 2.1 ± 0.086 | 1.93 ± 0.058
